In doi:10.1101/2021.01.11.425814 (bioRxiv, 2021):

Target: p53 transactivation domain (TAD) (13-61) (human, UniProt P04637 13-61)
Test: ITC

Sequence of p53 transactivation domain (TAD) (13-61) (P04637 13-61): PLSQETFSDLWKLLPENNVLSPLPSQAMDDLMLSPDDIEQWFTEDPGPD

B1: FOXO4 forkhead domain (FHD) (95-195) (domain or fragment)
chain: GSRRNAWGNQSYAELISQAIESAPEKRLTLAQIYEWMVRTVPYFKDKGDSNSSAGWKNSIRHNLSLHSKFIKVHNEATGKSSWWMLNPEGGKSGKAPRRRA
- dH: 12.3 kcal/mol
- stoichiometry N: 1.04
